# Assay: yeast display, Sf9 membrane polyspecificity reagent, FACS + sequencing; frameworks hold sequencing errors
# Procedure, shortened: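 After 36–48 hours of galactose induction, yeast (Saccharomyces cerevisiae BJ5465) displaying a synthetic nanobody library were stained at 4 °C for 1 hour with 10% biotinylated, detergent-solubilized Sf9 membrane reagent. Streptavidin microbeads enriched the stained cells before FACS sorting into low and high (top ~1%) gates on anti-HA and streptavidin fluorescence. Each clone's polyreactivity label reflects its gate of origin.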
row,Sequence,polyreactivity (PSR sort gate)
1,QVQLVESGGGLVQAGGSLRLICAASGSIFDKYARGWYRQEPGKERELVAAIDSGDTYYADSVKGRFTISRDNAKNTVYLQMNSLKPEDTAVYYCAADDVQYEYDYWGQGTQVTVSS,low polyreactivity
2,QVQLVESGGGLVQAGGSLRLICAASGSIFFSYAMGWYRQAPGKERELVAAIDYSGGGTYYADSVMGRFTISRDNAKNTVYLQMNSLKPEDTAVYYCNSDTEVWADTFISYRALNYWGQGTQVTVSS,low polyreactivity
3,QVQLVESGGGLVQAGGSLRLICAASGSIFFTYVMGWYRQSPGKERELVAAISSDDNTNYADSVKGRFTSSRDNAKNTVYLQMHSLKPEDTAVYYCNADTTRYPYYDYGYYDYDYWGQGTQVTVSS,low polyreactivity
4,QVQLVESGGGLVQAGGSLRLICAASGSIFLGYAMGWYRPAPGKERELVAAISTSGGGTYYADSVKGRFTISRDNAKNTVYLQMNSLKPEDTAVYYCNAVSHYKYDWGQGTQVTVSS,low polyreactivity
5,QVQLVESGGGLVQAGGSLRLICAASGSIFRGYTMGWYRQAPGKERELVATISWSGGSTYYADSVKGRFTISRDNAKNTVYLQMNSLKPEDTAVYYCAAVWYLGIPYDYWGQGTQVTVSS,high polyreactivity
6,QVQLVESGGGLVQAGGSLRLICAASGSIFRRYAMGWYRQAPGKERELVARITIRGGSTYYADSVKGRFTISRDNAKNTVYLQMNSLKPEDTAVYYCNTVVPASSGGAYRRYYYLGQGTQVTVSS,high polyreactivity
7,QVQLVESGGGLVQAGGSLRLICAASGSIFSIYAMGWYRQAPGKERELVAAITWGGGSTYYADSVKGRFTISRDNAKNTVYLQINSLKPEDTAVYDCAAESLTWYGTYYYWGQGTQVTVSS,high polyreactivity
8,QVQLVESGGGLVQAGGSLRLICAASGSIFSKYVMGWYREAPGKERDLVAAISWSGTRTYYADSVKGRFTISRDNAKNTVILQMNSMKAEDTAVYYCAARRLYAGHQYDYWGQGTIVTVSS,high polyreactivity
9,QVQLVESGGGLVQAGGSLRLICAASGSIFTKYTMGWSRQAPGKERELVAAITLRGTSTYYADSVKGRFTISRDNAMNTVYLQMNSLIPEDTAFYYCNKLYSWVVAYDYWGQGTQVTVSS,high polyreactivity
10,QVQLVESGGGLVQAGGSLRLICAASGSIFVNNGMGWYRQAPGKERELVAAIRLSTGSTYYADSVKGRFPISRDNAKNTVYLQMNSLKPEDTAVYYCATRYYIWGNWGQGTQVTVSS,high polyreactivity
11,QVQLVESGGGLVQAGGSLRLICAASGSIFWGYAIGWFRPAPGKERELVAGITATGGSTYYADSVKGRFTISRDNAKNTVYLPMNSLKPEDTAVYYCAAEHGRLATYTWWVIYDYWGHGTQVTVSS,low polyreactivity
12,QVQLVESGGGLVQAGGSLRLICAASGSIFYGNTMGWYRQARGKERELVAAISSGGSTYYADSVKGRFTISRDNAKNSVYLQMNSLKPEDTAVYYCAREDYSHSFLTYDYWGQGSQVTVSS,low polyreactivity
13,QVQLVESGGGLVQAGGSLRLICAASGSIFYYNVMGWYRQAPGKEREWVAAIDIDGSTYYADSVNGRFTIARDNAKNTVYLQMNSLKPADTAVYYCNAQAPYWFSFYSDHKYDYWGLGTQVTVSS,low polyreactivity
14,QVQLVESGGGLVQAGGSLRLICAASGSILGTYAMGWYRQAPGNDRELVAAISSSGRTSYADSVKGRFTISRDNAKNTVYLQMNSLKPEETAVYYCNASNYIFLINDPDAAPWLYDYWGQGSQVTVSS,low polyreactivity
15,QVQLVESGGGLVQAGGSLRLICAASGSIVKNYAMGWYTQAPGKERELVAVISSGGSTNYADSVKGRFTISRDNAKYTVYLHMNSLIPEDTAVYSCAAERKSRGFWYDYWGQGTQVTVSS,high polyreactivity
16,QVQLVESGGGLVQAGGSLRLICAASGSTFAGNTMGWYRQAPGKERELVATITSDGSTDYADSVKGRFTISRDNAKNTVYYQMNSLKAEDPAVYYCAKARGLSKMDSWGQGTQVTVSS,low polyreactivity

row,Sequence,polyreactivity (PSR sort gate)
1,QVQLVESGGGLVQAGGSLRLICAASGSTFARNAMGWYRQAPGKERELVAAITTRGSSTYYADSVKGRFTISRDNAKNTVYLQMNSLKPEDTAVYYCAADSRRSWYWGGYRQTGMGYWGQGTQLTVSS,high polyreactivity
2,QVQLVESGGGLVQAGGSLRLICAASGSTFDANAMGWYRQAPGKERELVAAITSNGGSTYYADSVKARFTISRDNAKNTVYLQMNSLKPEDTAVYYCATEQHTVQDYDFWGQGTQVTVSS,low polyreactivity
3,QVQLVESGGGLVQAGGSLRLICAASGSTFESYAMGWYRQAPGKERELVAAISRRGGRTYYADSVKGRFTISRDNAMNTVSLQMYSLKPEDTAVYYCATDSSYYGSDDYWGQGTQVTVSS,high polyreactivity
4,QVQLVESGGGLVQAGGSLRLICAASGSTFGVNAMGWYRQAPGKERELVAVITRSGGSTYYADSVKGRFTISRDNAKNTVYLEMNSLKPEDTAVYYCAKSGVVDWGQGTQVTVSS,low polyreactivity
5,QVQLVESGGGLVQAGGSLRLICAASGSTFGVYDMGWYRKAPGKERELVAAISWRGITYYADSVKGRFTISRDNAKNTVYLQMNSLNPEDTAVYFCASYEWLAYTSAWYGYWGKGTQVTVSS,high polyreactivity
6,QVQLVESGGGLVQAGGSLRLICAASGSTFGYYTMGWYRQAPGKERELVAAISSGGSRTNYADSVKGRFTISRDNAKNTVYLQMNSLIPEDTAVYYCAAGPVSYVRYGSEYDYWGQGTQVTVSS,high polyreactivity
7,QVQLVESGGGLVQAGGSLRLICAASGSTFKYNAMGWYRQAPGKERELVAAITYSGSSTYYADSVKGRFTISRDNAKNTVYLQMNSLKPEDTAVYYCAAGDLAKYRSYSYYYWGQGTQVTLSS,high polyreactivity
8,QVQLVESGGGLVQAGGSLRLICAASGSTFLKYAMGWYRQAPGKERELVAAITYRGGTTYYADSVKGRFTISRDNAKNTVYLQMNSLKPEDTAVYYCAARGYKRMGYWGQGTQVTVSS,high polyreactivity
9,QVQLVESGGGLVQAGGSLRLICAASGSTFNIYAMGWYRQAPGKERELVAAITSSGGSTYYAESVKGRFTISRDNGKNTVYLQMNSLKPEYTAVYYCNTDQYSPYEYSSFDSWGQGSQVTVSS,low polyreactivity
10,QVQLVESGGGLVQAGGSLRLICAASGSTFRNYAMGWYRQAPGKEREFVAAITWSGGRTYYADSVKGRFTISRDNAKNTVYLQMNSLKPEDTAVYYCAARYRRGYDYWGQGTQVTVSS,high polyreactivity
11,QVQLVESGGGLVQAGGSLRLICAASGSTFRYYAMVLYRQAPGKERELVAAISGTGSTYYADSVKGRFTISRDNAKNTVYLQMNSLKPEDTAVYYCAAYPRASQRYNYWGQGTQVTVSS,high polyreactivity
12,QVQLVESGGGLVQAGGSLRLICAASGSTFTGYAMGWYRQAPGKERELVAAISISGGRTFYADSVKGRFTISRDNAKNTVYLQMNSLKPEDTAVYYCAAFLRGSKYSFDYWGQGTQVTVSS,high polyreactivity
13,QVQLVESGGGLVQAGGSLRLICAASGSTFVLYAMGWYRQAPGKERELVAAITKRGGNTYYADSVKGRFTISRDNAKNTVYLQMNSLKPEDTAVYYCAADHVRSPFDSWGQGTQVTVSS,low polyreactivity
14,QVQLVESGGGLVQAGGSLRLICAASGSTFVPYTMAWYRQAPGKERELVAAISGSGGTDYADSVKGRFTISRDNGKNTVYLQMNSLKPEDTAVYYCAAYSRVVPSFYYWGQGTQVTVSS,low polyreactivity
15,QVQLVESGGGLVQAGGSLRLICAASGSTFVRNAMGWYRQSPGKEREFVAAIRRSGGSTYYADSVKGRFTISRDNPKNTVYLQINSLKPEDTAVYDCAARNYYTYDYWGQGTQVTVSS,high polyreactivity
16,QVQLVESGGGLVQAGGSLRLICAASGSTFWSNAMGWYRQAPGKERELVATINSGDGTNYADSVKGRFTISRDNAKNTVYLQMNSLKPEDTAVYYCAAEKYYPWGWYTYDYWGQGTQVTVSS,high polyreactivity
